Measurements: paper PMC10533329

Biological target: RGA5 HMA domain (rice (Oryza sativa)) (UniProt F7J0N2)
Assay: SPR; Biacore […]) or 50 to 0 µM ([…]; HBS-EP+ buffer; 1:1 binding model, kinetic fit

Sequence of UniProt F7J0N2 (F7J0N2 997-1066): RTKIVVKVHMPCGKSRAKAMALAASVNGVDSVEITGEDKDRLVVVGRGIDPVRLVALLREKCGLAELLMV

**Q.** Which Kd does the source give for “AVR-Pia (purified) (from UniProt B9WZW9 1-85) (natural protein)” here?
**A.** 26.8 µM
